Several values for one entry are separate records, joined by “and”; a condition that tells them apart may be missing. Identical values can stand only once.
B1: LC1 domain (residues 231–308) of rU1-70K (domain or fragment, UniProt P08621 231-308, looked up)
chain: RDRDRDRERERRERSRERDKERERRRSRSRDRRRRSRSRDKEERRRSRERSKDKDRDRKRRSSRSRERARRERERKEE
notes: The GST carrier was kept in BN-PAGE (~65 kDa on SDS-PAGE); also called LC1 alone; mixed charge LC1 domain; source: HEK293, transfected, in lysate
B2: N-terminal domain (residues 1–99) of rU1-70K (domain or fragment, UniProt P08621 1-99, looked up)
chain: MTQFLPPNLLALFAPRDPIPYLPPLEKLPHEKHHNQPYCGIAPYIREFEDPRDAPPPTRAETREERMERKRREKIERRQQEVETELKMWDPHNDPNAQG
notes: U1-70K residues 1-99 (N-terminus); The GST carrier was kept in BN-PAGE (~65 kDa on SDS-PAGE); also called N-terminus (1–99 residues) alone; source: HEK293, transfected, in lysate

Target: the molecule itself
Assay: native gel or EMSA; blue native PAGE (3-12% NativePAGE Bis-Tris) of 0.8 ug purified protein in loading buffer with 50 mM TCEP, 30 min at room temperature; Coomassie and western blot with Myc antibodies

Protein | stoichiometry N
B1 | 2 and 3 and 4
B2 | 2

— paper doi:10.1101/243014, “RNA-binding proteins with mixed charge domains self-assemble and aggregate in Alzheimer’s Disease” (bioRxiv, 2018)
